# From patent publication US20240092922A1 (EUCURE BEIJING BIOPHARMA, published 2024)
# Biological target: T1, Histidine-tagged human 4-1BB protein (h4-1BB-His) (human, UniProt Q07011 24-186)
# T1 construct: not shown: histidine tag
# Experiment: SPR (Biacore T200), antibody on Protein A chip, h4-1BB-His injected;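 further: dissociation phase followed for 300 s, Kd derived as koff divided by kon from the kinetic fit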
Binder,Kd,koff,kon
"45-8E2-mHvKv-IgG2 (antibody, V domains shown) VH: EVKLLESGGGLVQPGGSLKLSCAASGFDFSRYWMSWVRQAPGKGLEWIGEIHPDSSAINYTPSLKDKFIISRDNAKNTLYLQMSKVRSEDTALYYCARSYYGRVFDYWGQGTTLTVSS VL: DIVMTQSPATLSVTPGDRVSLSCRASQSISDYLHWYQQKSHESPRLLIKYASQSISGIPPRFSGSGSGSDFTLSINSVEPEDVGMYYCQDGHSFPPTFGAGTKLELK",1.28 nM,0.000413 s⁻¹,323000 M⁻¹ s⁻¹
"45-4B9-mHvKv-IgG2 (antibody, V domains shown) VH: EVQLQQSGPELVKPGASVKMSCKASGYTFTTYVMYWVKQRPGQGLEWIGYINPYNDDIRYNEKFKGKATLTSDRSSSTAYMELSSLTSEDSAVYLCARQGGDYWGQGTILTVSS VL: DVQITQSPSYLAASPGETITVNCRASKNINKYLAWYQEKPGKTNKLLIYSGSTLQSGIPSRFSGSGSGTDFTLTISSLEPEDFAVYHCQQYNEYPLTFGAGTKLEMK",110 nM,0.00298 s⁻¹,27200 M⁻¹ s⁻¹
"45-7E9-mHvKv-IgG2 (antibody, V domains shown) VH: QVQLKQSGPGLVQPSQSLSITCTVSGFSLTTYGVHWVRQPPGKGLEWLGVIWSDGNTDYNDAFISRLSITKDNSTSQVFFKMNGLQADDTAIYYCARNSITSVSFDCWGQGTTLTVSS VL: DIVMTQSQKFMSTSVGDRVSVTCKASQNVGTTVAWYQQRPGQSPKALICSASYRYSGVPDRFTGSGSGTDFTLTISNVQSEDLAEYFCQQYNSYPLTFGSGTKLEIK",15.3 nM,0.00916 s⁻¹,600000 M⁻¹ s⁻¹
"45-7G9-mHvKv-IgG2 (antibody, V domains shown) VH: QVQLQQPGSALVRPGASVKLSCKASGYTFSNYWIHWVKQRHGQGLEWIGNIYPASDYTNYDEKFKNKGTLTVDTSSSTAYMHLSSLTSEDSAVYYCSRGYFGSLDYWGQGTSVTVSA VL: DILLTQSPAILSVNPGERVSFSCRASQPIGTGIHWYQQRTNGSPRLLIKSASESISGIPSRFSGSGSGTDFTLTINNVESDDVGDYYCQQSYSWPTTFGGGTKLKIN",23.1 nM,0.0041 s⁻¹,177000 M⁻¹ s⁻¹
"45-8E11-mHvKv-IgG2 (antibody, V domains shown) VH: EVQLQQSGTVLARPGASVKMSCKASGYSFTSNWMHWVKQRPGQGLEWIGVIYPGNSDTSYNQKFKGKAKLTAVTSASTAYMELSSLTNEDSAVYYCTRGITTAPEYWGQGTTLTVSS VL: NIVMTQSPKSMSMSVGERVTLSCKASENVGIYVSWYQQKPEQSPKLLIYGASNRYTGVPDRFTGSGSATDFTLTISSVQPEDLADYHCGHTYNYPFTFGSGTKLEIK",0.597 nM,0.000127 s⁻¹,214000 M⁻¹ s⁻¹
"30-5F9-mHvKv-IgG4 (antibody, V domains shown) VH: QVQLKESGPGLVAPSQSLSITCTVSGFSLTTYDISWVRQPPGKGLEWLGVIWTGGGTNYNSSFMSRLSISKDNSKNQVFLKMNSLQVDDTAIYYCERVDYWGQGTTLTVSS VL: DVVMTQTPLSLPVSLGDQASISCRSSQSLVHSNGNTYLHWYLQKPGQSPKLLIYKVSNRFSGVPDRFSGSGSGTAFTFKISRVEAEDLGVYFCSQNTHVPWTFGGGTKLEIK",9.91 nM,0.00247 s⁻¹,249000 M⁻¹ s⁻¹
"45-2B3-mHvKv-IgG2 (antibody, V domains shown) VH: QVQLQQSGPELVKPGASVKISCKTSGYAFSTSWMNWVKQRPGQGLEWIGRIYPGDGDTDYNGRFKGKATLTADKSSSTAYLQLSSLTSVDSAVYFCARLDGYYEVFYFDYWGQGTTLTVSS VL: not shown",4.96 nM,0.000138 s⁻¹,27700 M⁻¹ s⁻¹
"29-6A5-mHvKv-IgG2 (antibody, V domains shown) VH: QVQLQQPGAELVRPGASVKLSCKASGYTFSSYWINWVKQRPGQGLEWIGNIYPSDSYTNYNQKFKDKATLTVDKSSSTAYMQLSSPTSDDSAVYYCTRTWEFYYDSVFDYWGQGTTLTVSS VL: DIKMTQSPSSMYASLGERVTITCKASQDINSYLSWFQQKPGKSPKTLIYRANRLVDGVPSRFSGSGSGQDYSLTISSLEYEDMGIYYCLQYDELPPTFGGGTKLEIK",0.371 nM,0.000715 s⁻¹,1.93e+06 M⁻¹ s⁻¹
"1C4-H2K3-IgG4 (antibody, V domains shown, humanized) VH: QVQMVQSGAEVKKPGASVKLSCKASGFTFSSSYINWLRQAPGQSLEWIGWIFAGTGGTYYNQKFTGRVQITRDTSASTAYMELSSLRSEDTAIYYCARHSPRATLFDFWGQGTTLTVSS VL: EIVLTQSPATLSLSPGERATMSCRASSSVNHMHWYQQKPGFSPRAWIYATSNLASGIPARFSGSGSGTSFTLTISSLEPEDFATYYCQQWSSNPYTFGGGTKLEIK",17.6 nM,0.000502 s⁻¹,28500 M⁻¹ s⁻¹
"1C4-H1K2-IgG4 (antibody, V domains shown, humanized) VH: QVQMVQSGAEVKKPGASVKLSCKASGFTFSSSYINWLRQAPGQRLEWMGWIFAGTGGTYYNQKFTGRVTITRDTSASTAYMELSSLRSEDTAIYYCARHSPRATLFDFWGQGTTLTVSS VL: EIVLTQSPATLSLSPGERATLSCRASSSVNHMHWYQQKPGQAPRALIYATSNLASGIPARFSGSGSGTSFTLTISSLEPEDFATYYCQQWSSNPYTFGGGTKLEIK",22 nM,0.000605 s⁻¹,27500 M⁻¹ s⁻¹
"1C4-H1K1-IgG4 (antibody, V domains shown, humanized; also called 1C4-IgG4-H1K1) VH: QVQMVQSGAEVKKPGASVKLSCKASGFTFSSSYINWLRQAPGQRLEWMGWIFAGTGGTYYNQKFTGRVTITRDTSASTAYMELSSLRSEDTAIYYCARHSPRATLFDFWGQGTTLTVSS VL: EIVLTQSPATLSLSPGERATLSCRASSSVNHMHWYQQKPGQAPRALIYATSNLASGIPARFSGSGSGTSFTLTISSLEPEDFAVYYCQQWSSNPYTFGGGTKLEIK",23.1 nM,0.000616 s⁻¹,26700 M⁻¹ s⁻¹
"16-1C4-mHvKv-IgG4 (antibody, V domains shown) VH: QGQMQQSGAELVKPGASVKLSCKTSGFTFSSSYINWLKQKPGQSLEWIAWIFAGTGGTYYNQKFTGKAQLTVDTSSGTAYMQFSSLTTEDSAIYYCARHSPRATLFDFWGQGTTLTVSS VL: QIVLSQSPAILSASPGEKVTMTCRASSSVNHMHWYQQRTGFSPKAWIYATSNLASGVPARFSGSGSGTSYSLTISRVEAEDAATYYCQQWSSNPYTFGGGTKLEIK",20.5 nM,0.000502 s⁻¹,24400 M⁻¹ s⁻¹

# Further lines, results first:
Kd,koff,kon,Binder
0.45 nM,0.000521 s⁻¹,1.16e+06 M⁻¹ s⁻¹,"69-3C2-mHvKv-IgG2 (antibody, V domains shown) VH: DVQLVESGGGLVQPGGSRKLSCAASGFSFSSFGMHWMRQAPEKGLEWVAYISSGSSAIYYADTVKGRFTISRDNPKNTLFLQMTSLRSEDTAMYYCARDWVDYWGQGTTLTVSS VL: DIQMTQSPASLSVSVGETVTITCRASENIYSNLVWYQQKQGKSPQLLVYTATKLTNGVPSRFSGSGSGTQYSLKINSLQSEDFGTYYCQHFWDTPYTFGGGTKLEMK"
0.16 nM,0.000159 s⁻¹,999000 M⁻¹ s⁻¹,"70-3F9-mHvKv-IgG2 (antibody, V domains shown) VH: QVQLQQPGAELVRPGASVKLSCKASGYTFTSYWINWVKQRPGQGLEWIGNIFPSDSYTNYNQKFKDRAKLTVDKSSSTAYMQLSSPTSEDSAVYYCTRFGSSGYPDYYTMEYWGQGTSVTVSS VL: DIQMTQSPASLSASVGETVTITCRASGNIDNYLAWYQQKQGKSPQLLVYNAKTLAEGVPSRFSGSGSGTEYSLKINSLQPEDFGSYHCQQYWTIPYTFGGGTKLEIK"
62.3 nM,0.00293 s⁻¹,47000 M⁻¹ s⁻¹,"45-8F1-mHvKv-IgG2 (antibody, V domains shown) VH: EVQLQQSGTVLARPGASVKMSCKASGYSFTSYWMHWVKQRPGQGLEWIGVIYPGNSDTSYNQKFKGKAKLTAVTSASTAYMDLSSLTNEDSAVYYCTRGITTAPDYWGQGTTLTVSS VL: NIVMTQSPKSMSMSVGERVTLSCKASENVGIHVSWYQQKPEQSPKLLIYGASSGYNGVPDRFTGSGSATDFTLTISSVQPEDLADYHCGQTYSYPFTFGSGTKLEIK"
0.359 nM,0.000513 s⁻¹,1.43e+06 M⁻¹ s⁻¹,"61-6A7-mHvKv-IgG2 (antibody, V domains shown) VH: EVQLQQSGAELVRPGALVKLSCKASGFNIKDYYMHWVKRRPEQGLEWIGWIDPENGNTIYDPKFQDKASITADTSSNTAYLQLSSLTSEDTAVYYCAEGLPWYFDYWGQGTTLTVSS VL: QIILTQSPALMSASPGEKVTMTCSASSSVSDMNWYQQKPRSSPTPWIYLTSNLSSGVPDRFSGSGSGTSYSLTISSMEAEDAATYYCQQWSGNPLTFGAGTRLELK"
0.313 nM,0.000331 s⁻¹,1.06e+06 M⁻¹ s⁻¹,"59-5E4-mHvKv-IgG2 (antibody, V domains shown) VH: QVQLQQPGAELVRPGASVKLSCKASGYTFTTYWINWVRQRPGQGLEWIGNIYPSDSYTNYNQKFKDKASLTVDKSSNTAYMQLSSPTSEDSAVYYCAREAGDGTHYYAIDYWGQGTSVTVSS VL: NIVMTQSPKSMSMSVGERVTLSCKASENVGTYVSWYQQKPEQSPKLLIYGASNRYPGVPDRFTGSGSATDFTLTISSLQAEDLADYHCGQGYSYLRTFGGGTNLEIK"
14 nM,0.00141 s⁻¹,101000 M⁻¹ s⁻¹,"56-2A6-mHvKv-IgG2 (antibody, V domains shown) VH: QIQLVQSGPELKKPGETVKISCKASGYTFTNYGMNWVKQAPGKGFKWMGWINTYTGEPTYADDFKGRFAFSLEISASTAYLQINNLKNEDTATYFCARRDYLGAMDYWGQGTSVTVSS VL: ENVLTQSPAIMSASPGEKVTMTCRASSSVSSSYLHWYQQKSGASPKLWIYSTSNLASGVPARFSGSGSGTSYSLTISSVEAEDAATYYCQQYSAYLYTFGGGTKLEIK"
2.18 nM,0.00341 s⁻¹,1.57e+06 M⁻¹ s⁻¹,"55-8F6-mHvKv-IgG2 (antibody, V domains shown) VH: QVQLQQPGAELVRPGASVKLSCKASGYIFTSYWINWVKQRPGQGLEWIGNIYPSDSYTNYNQKFKDKATLTVDKSSSTAYMQLSSPTSEDSAVYYCTRFHYGSSPFDNWGQGTTLTVSS VL: DIQMTQSTSSLSASLGDRVTISCRASQDISHYLNWYQQKPDGTVKLLIYYTSRLHSGVPSRFSGSGSGTDYSLTISNLEQEDFATYFCQQGHTLPRTFGGGTKLEIK"
10.9 nM,0.000263 s⁻¹,24100 M⁻¹ s⁻¹,"70-6F10-mHvKv-IgG2 (antibody, V domains shown) VH: QVQLQQSGPELVKPGASVKISCKASGYAFNNSWMNWVKQRPGQGLEWIGRIYPGDGDTDYNGKFKGKATLTADKSSSTAYMQLSSLTSVDSAVYFCARLDGNYYYWYFDVWGAGTTVTVSS VL: not shown"
12 nM,0.00502 s⁻¹,417000 M⁻¹ s⁻¹,"54-8B11-mHvKv-IgG2 (antibody, V domains shown) VH: QIQLVQSGPELKKPGETVKISCKASKFTFTNYGMNWVKQAPGKALKWMGWINTYTGEPTYADDFKGRFDFSLETSATTAYLQINNLKNEDTATYFCARREYYPWVFVYWGQGTLVTVSA VL: ENVLTQSPAIMSASPGEKVTMTCSASSSVSYMHWYQQKSSTSPKLWIYDTSKLASGVPGRFSGSGSGNSYSLTISSMEAEDVATYYCFQGSGYPLTFGGGTKLEIK"
